Data on 4 molecules can be found in US20180094062A1 (Hoffmann-La Roche, published 2018).

Changes are numbered by the printed parent chain.

The chains are these.
B1: anti-HER3 antibody M-17-02 (antibody, V domains shown)
VH: EVQLQQSGTVLARPGASVKMSCKASGYSFTSYWIHWVKQRPGQGLEWIGAIYPGNSDTTYNQKFKGKAKLTAVTSASTAYMELSSLTNEDSAVYYCARTGVWTSYYFDYWGQGTTLTVSS
VL: DIQMTQSPASLSASVGETVTITCRASENIYSNLAWYQQKQGKSPQLLVYAATNLADGVPSRFSGSGSGTQFSLRINSLQPEDFGSYYCQHFYGTPFTFGTGTKLEIK
notes: mouse hybridoma clone
B2: anti-HER3 antibody M-43-01 (antibody, V domains shown)
VH: EVQLQQSGTVLARPGASVKMSCKASDYTFSNYWVHWVKQRPGQGLEWIGAIYPGNGDSTYYQKFKGKATLTAVTSTSTAYMDLSSLTNGDSAVYFCTRSGVGYNYYFDYWGQGTTLTVSS
VL: B1 VL with A50I, R74K, F83L, K107E
notes: mouse hybridoma clone
B3: anti-HER3 antibody M-08-11 (antibody, V domains shown)
VH: QAYLQQSGAELMRPGASVRMSCQASGYTFTSYTIHWLKQTPRQGLEWIGAIYPRNGDFSYNQKFKDKASLTVDTSSSTAYMHLSSLTSEDSAVYFCARTINYGDWFAYWGQGTLVTVSA
VL: DIQMIQSPASLFVSEGETVIITCRASENIYSNLAWYHQKKGKSPQVLVYAAIKLADGVPLRFSGSGSGTQFSLKINSLQSEDFGSYYCQHFWGPPYTFGSGTNLEIK
notes: mouse monoclonal antibody from hybridoma, tested as hybridoma supernatant or as antibody; also called M-011
B4: anti-HER3 antibody M-46-01 (antibody, V domains shown)
VH: QIQLQQSGPQLVRPGASVKISCKASGYSFTSYWMHWVKQRPGRGLEWIGMIDPSDGVTRLNQKFKDKATLTVDNSSSTAYMQLSSPTSEDSAVHYCARVDVLYWYFDVWGAGTTVTVSS
VL: DIVLTQSPASLAVSLGQRATISCRASKSISISGYSYMHWYQQKAGQPPKLLIYLTSNLESGVPARFSGSGSGTDFTLNIHPVEEEDAATYYCHHSRELPFTFGSGTKLEIK
notes: mouse hybridoma clone

Chain of HER4, full length, on transfected HEK293 cells (Q15303 26-1308): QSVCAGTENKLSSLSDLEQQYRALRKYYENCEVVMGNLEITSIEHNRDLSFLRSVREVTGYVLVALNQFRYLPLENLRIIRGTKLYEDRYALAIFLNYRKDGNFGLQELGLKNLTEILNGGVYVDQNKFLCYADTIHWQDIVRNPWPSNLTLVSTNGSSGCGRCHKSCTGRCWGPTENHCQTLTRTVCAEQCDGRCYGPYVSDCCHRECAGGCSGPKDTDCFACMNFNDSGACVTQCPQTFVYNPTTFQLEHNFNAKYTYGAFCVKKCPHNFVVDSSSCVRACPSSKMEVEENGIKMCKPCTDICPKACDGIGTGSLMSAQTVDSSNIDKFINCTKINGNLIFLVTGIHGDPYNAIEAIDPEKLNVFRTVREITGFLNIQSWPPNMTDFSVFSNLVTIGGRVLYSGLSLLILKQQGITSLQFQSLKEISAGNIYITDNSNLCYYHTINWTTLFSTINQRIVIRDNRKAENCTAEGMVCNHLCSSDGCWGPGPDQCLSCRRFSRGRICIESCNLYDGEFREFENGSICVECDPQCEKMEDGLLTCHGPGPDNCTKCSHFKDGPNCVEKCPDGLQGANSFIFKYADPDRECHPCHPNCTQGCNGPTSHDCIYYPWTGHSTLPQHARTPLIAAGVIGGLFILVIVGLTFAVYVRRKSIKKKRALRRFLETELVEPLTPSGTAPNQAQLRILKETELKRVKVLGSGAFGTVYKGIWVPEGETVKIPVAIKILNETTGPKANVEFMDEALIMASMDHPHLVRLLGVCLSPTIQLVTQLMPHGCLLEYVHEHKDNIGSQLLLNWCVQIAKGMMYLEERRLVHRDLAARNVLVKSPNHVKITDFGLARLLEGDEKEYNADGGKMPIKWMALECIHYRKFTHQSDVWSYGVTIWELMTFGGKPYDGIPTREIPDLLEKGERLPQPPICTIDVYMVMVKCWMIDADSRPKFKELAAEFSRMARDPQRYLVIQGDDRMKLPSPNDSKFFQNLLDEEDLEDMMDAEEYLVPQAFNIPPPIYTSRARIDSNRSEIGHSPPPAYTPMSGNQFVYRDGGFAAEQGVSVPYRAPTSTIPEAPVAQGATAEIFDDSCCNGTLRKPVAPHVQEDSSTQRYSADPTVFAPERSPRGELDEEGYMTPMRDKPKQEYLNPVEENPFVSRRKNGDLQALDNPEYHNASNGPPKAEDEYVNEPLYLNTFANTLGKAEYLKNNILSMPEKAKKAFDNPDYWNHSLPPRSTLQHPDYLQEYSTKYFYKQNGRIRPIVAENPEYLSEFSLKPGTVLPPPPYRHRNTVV

One experiment concerns the target T1, TtSlyDcas-Her3.
T1 chain: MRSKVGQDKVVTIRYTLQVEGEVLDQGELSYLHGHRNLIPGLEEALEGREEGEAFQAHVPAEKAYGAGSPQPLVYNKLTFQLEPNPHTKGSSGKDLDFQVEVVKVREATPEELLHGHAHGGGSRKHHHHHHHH
In words: ELISA, antigen coated, hybridoma supernatant. As for the experimental part: (§1) For the ELISA screening an antigen down format was used. […] Hybridoma Supernatant was added to the plates and incubated for 1 h at room temperature. Bound antibody was detected with a HRP-labeled F(ab′)₂ goat anti-mouse Fcγ (Dianova) and ABTS (Roche) was used as a HRP-substrate.
(§2) As negative controls the scaffold proteins TtSlyDcas and TgSlyDΔIF were used.
In the case of B1, the “OD 405 nm” value turned out to be 1.53 OD.

As to B2, the “OD 405 nm” value is 3.27 OD.

For the molecule B3, the “OD 405 nm” value is 3.2 OD.

Turning to B4, the “OD 405 nm” value was determined as 2.56 OD.

The target of another experiment is T2, human recombinant HER4 Extracellular Domain (HER4 ECD) (human, UniProt Q15303 26-651).
T2 sequence: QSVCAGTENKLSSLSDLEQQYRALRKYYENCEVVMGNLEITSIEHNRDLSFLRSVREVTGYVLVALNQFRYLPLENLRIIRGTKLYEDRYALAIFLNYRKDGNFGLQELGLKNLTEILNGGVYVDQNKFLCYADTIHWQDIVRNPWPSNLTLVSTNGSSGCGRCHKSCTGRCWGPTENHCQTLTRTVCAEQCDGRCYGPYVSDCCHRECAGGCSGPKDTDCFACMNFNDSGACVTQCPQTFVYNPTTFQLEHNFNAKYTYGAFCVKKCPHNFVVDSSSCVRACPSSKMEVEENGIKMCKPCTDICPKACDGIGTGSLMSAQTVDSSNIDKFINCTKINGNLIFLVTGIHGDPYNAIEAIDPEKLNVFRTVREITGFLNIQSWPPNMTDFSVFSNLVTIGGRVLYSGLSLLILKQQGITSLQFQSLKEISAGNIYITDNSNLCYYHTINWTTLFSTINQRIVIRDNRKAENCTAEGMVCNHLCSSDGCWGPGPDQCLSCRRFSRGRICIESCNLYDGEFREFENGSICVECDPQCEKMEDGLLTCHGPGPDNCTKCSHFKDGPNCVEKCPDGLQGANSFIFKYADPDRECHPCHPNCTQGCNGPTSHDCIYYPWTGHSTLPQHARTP
In words: ELISA, antigen coated, hybridoma supernatant. How it is done: as §1, §2
On the technique in general: An ELISA detects its analyte on a solid surface through an enzyme-linked reagent.
On to B1, for which the “OD 405 nm” value was 0.025 OD and the binding result is “no binding”.

On to B2, for which the “OD 405 nm” value stood at 0.04 OD and the binding result is listed as “no binding”.

For the molecule B3, the “OD 405 nm” value was 0.024 OD and the binding result was “no binding”.

In the case of B4, the “OD 405 nm” value came out at 0.032 OD and the binding result is “no binding”.

In the next experiment the target is T3, TtSlyDcas.
T3 construct: negative control scaffold without the HER3 β-hairpin
T3 chain: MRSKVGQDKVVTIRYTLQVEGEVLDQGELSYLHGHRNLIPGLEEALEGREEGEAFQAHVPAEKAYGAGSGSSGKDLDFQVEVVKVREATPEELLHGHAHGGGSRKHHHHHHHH
In words: ELISA, antigen coated, hybridoma supernatant. As for the experimental part:
as §1, §2
On to B1, for which the “OD 405 nm” value is 0.023 OD.

Consider B2, for which the “OD 405 nm” value was 0.018 OD.

With B3, the “OD 405 nm” value was 0.038 OD.

Take B4: the “OD 405 nm” value is 0.038 OD.

For the next experiment, the target named is T4, TgSlyDΔIF.
T4 construct: negative control scaffold without insert (Thermococcus gammatolerans SlyD); also called TgSlyDAIF
T4 chain: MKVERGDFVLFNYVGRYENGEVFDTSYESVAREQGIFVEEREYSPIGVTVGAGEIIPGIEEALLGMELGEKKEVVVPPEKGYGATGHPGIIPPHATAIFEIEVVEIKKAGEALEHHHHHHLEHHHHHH
The experiment in a line: ELISA, antigen coated, hybridoma supernatant. How it is done: as §1, §2
Take B1: the “OD 405 nm” value came to 0.026 OD.

Consider B2, for which the “OD 405 nm” value was 0.038 OD.

For B3, the “OD 405 nm” value stood at 0.035 OD.

In another experiment the target is T5, TgSlyDcys-Her3.
T5 chain: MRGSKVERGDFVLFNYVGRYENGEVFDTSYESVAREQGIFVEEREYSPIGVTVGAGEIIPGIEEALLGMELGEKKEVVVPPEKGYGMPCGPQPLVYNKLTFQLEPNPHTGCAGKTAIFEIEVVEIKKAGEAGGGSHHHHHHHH
In words: ELISA, antigen coated, hybridoma supernatant. As for the experimental part: as §1, §2
B1: the “OD 405 nm” value was 1.53 OD.

B2: the “OD 405 nm” value amounted to 3.15 OD.

B3: the “OD 405 nm” value was 3.26 OD.

In the next experiment the target is human HER2 Extracellular Domain (HER2 ECD) (human, UniProt P04626 23-652). The experiment in a line: ELISA, antigen coated, hybridoma supernatant. How it is done:
as §1, §2
B1: the “OD 405 nm” value was determined as 0.03 OD and the binding result is given as “no binding”.

For B2, the “OD 405 nm” value is 0.045 OD and the binding result is “no binding”.

As for B3, the “OD 405 nm” value was 0.025 OD and the binding result is on record as “no binding”.

Take B4: the “OD 405 nm” value amounted to 0.04 OD and the binding result was “no binding”.

Another experiment has as its target T6, TgSlyDser-Her3.
T6 chain: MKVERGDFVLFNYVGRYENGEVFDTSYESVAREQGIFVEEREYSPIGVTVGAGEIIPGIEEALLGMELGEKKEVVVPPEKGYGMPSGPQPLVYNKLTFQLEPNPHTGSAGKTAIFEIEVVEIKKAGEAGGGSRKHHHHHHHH
The experiment in a line: ELISA, antigen coated, hybridoma supernatant. As for the experimental part: as §1, §2
B1: the “OD 405 nm” value amounted to 1.57 OD.

Consider B2, for which the “OD 405 nm” value came to 3.44 OD.

With B3, the “OD 405 nm” value was 3.11 OD.

In the next experiment the target is T7, human HER1 Extracellular Domain (HER1 ECD) (human, UniProt P00533 25-645).
T7 construct: also called EGFR ECD
In words: ELISA, antigen coated, hybridoma supernatant. As for the experimental part: as §1, §2
Turning to B1, the “OD 405 nm” value turned out to be 0.028 OD and the binding result was “no binding”.

In the case of B2, the “OD 405 nm” value was determined as 0.043 OD and the binding result is “no binding”.

On to B3, for which the “OD 405 nm” value is 0.06 OD and the binding result is recorded as “no binding”.

Consider B4, for which the “OD 405 nm” value worked out at 0.043 OD and the binding result is listed as “no binding”.

The target of the next experiment is T8, human recombinant HER3 Extracellular Domain (HER3 ECD) (human, UniProt P21860 20-643).
T8 construct: 68 kDa; also called human-Her3-ECD
In words: ELISA, antigen coated, hybridoma supernatant. How it is done:
as §1, §2
As to B1, the “OD 405 nm” value worked out at 2.96 OD.

For B2, the “OD 405 nm” value turned out to be 1.44 OD.

Turning to B3, the “OD 405 nm” value was 3.15 OD.

Take B4: the “OD 405 nm” value stood at 1.35 OD.

The target in the next experiment is HER4, full length, on transfected HEK293 cells (human, UniProt Q15303 26-1308). In words: IHC on HEK293 cells transiently transfected with full length HER4; NC = untransfected cells. As for the experimental part:
All selected clones were tested for reactivity and specificity in IHC. […] After an additional fixation in formalin overnight the Agarose blocks were embedded in paraffin. Untransfected HEK293 cells were used as negative controls and treated accordingly to the transfected cells. After paraffin embedding 3 μm thin sections were prepared using a microtome. The sections were mounted on glass microscopy slides and dried for 2 h. All further steps of the immunohistochemical staining procedure were carried out using a Ventana Benchmark XT. The slides were dewaxed and antigen retrieval was performed by applying heat for 1 hour. For antigen retrieval the Ventana buffer CC1 was used. The antibodies were used at a concentration of 1 μg/ml. For the detection of bound antibody the Ventana UltraView detection kit was used.
In the case of B1, the binding result is listed as “no binding”.

Regarding B2, the binding result was “no binding”.

As to B3, the binding result is listed as “no binding”.

For B4, the binding result is on record as “no binding”.

For another experiment, the target named is T9, HER3 ECD-HRG complex (Heregulin-activated Her-3 ECD) (human, UniProt P21860 20-643).
T9 construct: receptor-ligand complex made by preincubating HER3 ECD with a five-fold molar excess of Heregulin; also called Heregulin/Her-3 ECD; Heregulin-complexed Her-3 ECD
The experiment in a line: SPR, Interaction Map (TraceDrawer), two-state-kinetic no. 2, 25 C. Background: SPR reads the build-up and loss of mass on a sensor chip optically.
One may read the Kd as the equilibrium constant for the complex coming apart. Higher therefore signals weaker binding. Broadly, the koff is the rate constant with which the complex falls apart. A word on the kon: it is a measure of how fast the partners come together. The low end stands for slow association, the high end for fast association. As to B2, the Kd stood at 62 nM, the “Weight (contribution to the overall interaction)” value (shortened to “Weight”) came out at 13%, the koff turned out to be 0.000988 s⁻¹ and the kon stood at 15900 M⁻¹ s⁻¹.

As to B3, binding was characterised by a dissociation constant (Kd) of 23 nM, the “Weight” value was found to be 6%, the koff amounted to 0.000449 s⁻¹ and the kon worked out at 19500 M⁻¹ s⁻¹.

For the molecule B4, the affinity, expressed as Kd, was 15.7 nM; the “Weight” value was 7%; the koff turned out to be 0.000774 s⁻¹; the kon is 49400 M⁻¹ s⁻¹.
